The target of series [1] is SHOX full length (Homo sapiens, UniProt O15266 O15266:1-292). Briefly: ChIP with SHOX antibody, U2OS cells, quantitative PCR. The settings on record: tags: tetracycline-inducible in U2OS cells. The method, then:
Hereby U2OS cells, which express the SHOX gene for 48 hours, were treated with formaldehyde to allow fixation of the DNA binding proteins to the DNA. The cell chromatin was isolated and the fixed DNA precipitated together with SHOX through addition of a SHOX specific antibody. For controls, […] or water was used instead of the antibody. The precipitated DNA was analyzed by quantitative RT-PCR for an accumulation of SHOX binding sites in the putative regulatory region of the BNP gene.

In series [2] the target is T1, SHOX-GST (GST-SHOX-STM, SHOX aa 1-194) (Homo sapiens, UniProt O15266 O15266:1-194). Briefly: EMSA; five-nucleotide replacement, entire loss of binding. The settings on record: tags: N-terminal GST (pGEX, E. coli); chain copies: monomer at low, homodimer at high concentration (stated); label: 32P; 5' overhangs filled in. From the text:
(§1) To create double stranded DNA for mobility shift assays two complementary oligonucleotides were annealed, generating 5′ overhangs on each side to permit radiolabelling using the Taq polymerase. The following oligonucleotides were used in the shift experiments (only the forward strand of the probes are given, putative binding site in bold, mutagenized nucleotides underlined): BNP-1220 Wt: […] [SEQ ID NO: 10]; BNP-1220a: […] [SEQ ID NO: 11]; BNP-1220b: […] [SEQ ID NO: 12]; BNP-1220c: […] [SEQ ID NO: 13]; BNP-600Wt: […] [SEQ ID NO: 14]; BNP-600a: […] CAT [SEQ ID NO: 15]; BNP-600b: […] [SEQ ID NO: 16].
Gel Shift reactions contained 15 mM Hepes pH 7.5, 150 mM NaCl, 1 mM EDTA, 0.5 mM DTT, 0.05% NP-40, 7.5% glycerol, 0.25 mg/ml bovine serum albumin, 1.5 μg poly(dI-dC) and the appropriate ³²P-labelled probe. After addition of protein extract the samples were incubated for 10 min at room temperature. Separation was performed on a 5% nondenaturing polyacrylamide gel with 0.25×TBE at 12 V/cm at room temperature for 50 min. Gels were then dried and exposed overnight at −80° C. […] In competition experiments, varying amounts of unlabelled competitor DNA were added to the samples preceding addition of protein extracts. In supershift experiments, 3 μg of anti-human SHOX-3-specific antibody were applied to the samples and preincubated for 15 min on ice prior separation for 2 h at 12 V/cm and 8° C.

Series [3] addresses T1, SHOX-GST (GST-SHOX-STM, SHOX aa 1-194). Briefly: EMSA. The settings on record: tags: N-terminal GST (pGEX, E. coli); chain copies: monomer at low, homodimer at high concentration (stated); label: 32P; 5' overhangs filled in. The method, then: FIG. 3A: 10 fmol of ³²P-radiolabelled double stranded oligonucleotide containing the putative distal binding site of SHOX was incubated with 0, 0.05, 0.5 and 3 μl purified SHOX-GST (250 nM). Monomeric binding of SHOX-GST could be observed with volumes of 0.05 and 0.5 μl, an increase in SHOX-GST concentration led to the formation of homeodimers.
as §1
(§2) Gel Shift reactions contained 15 mM Hepes pH 7.5, 150 mM NaCl, 1 mM EDTA, 0.5 mM DTT, 0.05% NP-40, 7.5% glycerol, 0.25 mg/ml bovine serum albumin, 1.5 μg poly(dI-dC) and the appropriate ³²P-labelled probe. After addition of protein extract the samples were incubated for 10 min at room temperature. Separation was performed on a 5% nondenaturing polyacrylamide gel with 0.25×TBE at 12 V/cm at room temperature for 50 min. […]

The target is the same in series [4]. Briefly: EMSA; five-nucleotide replacement, entire loss of binding. The settings on record: tags: N-terminal GST (pGEX, E. coli); chain copies: monomer at low, homodimer at high concentration (stated); label: 32P; 5' overhangs filled in. The protocol:
To test the sequence specificity of the SHOX DNA binding, SHOX-GST was incubated with oligonucleotides containing artificially introduced mutations in the putative SHOX binding site. Nucleotides differing from the wild-type sequence (Wt) are highlighted in green (BNP-1220a, BNP-1220b, BNP-1220c).
as §1
Gel Shift reactions contained 15 mM Hepes pH 7.5, 150 mM NaCl, 1 mM EDTA, 0.5 mM DTT, 0.05% NP-40, 7.5% glycerol, 0.25 mg/ml bovine serum albumin, 1.5 μg poly(dI-dC) and the appropriate ³²P-labelled probe. After addition of protein extract the samples were incubated for 10 min at room temperature. Separation was performed on a 5% nondenaturing polyacrylamide gel with 0.25×TBE at 12 V/cm at room temperature for 50 min. Gels were then dried and exposed overnight at −80° C. […]
The source holds these as a separate data set.

Series [5] has the same target. Nature of the series: EMSA. The settings on record: tags: N-terminal GST (pGEX, E. coli); chain copies: monomer at low, homodimer at high concentration (stated); label: 32P; 5' overhangs filled in. The protocol:
FIG. 2A: 10 fmol of ³²P-radiolabelled double-stranded oligonucleotide containing the putative proximal binding site of SHOX was incubated with 0, 0.05, 0.5 and 3 μl purified SHOX-GST (250 nM). Monomeric binding of SHOX-GST could be observed with volumes of 0.05 and 0.5 μl, an increase in SHOX-GST concentration led to the formation of homeodimers.
as §1, §2
This is another data set of the same source.

T1 sequence (O15266 1-194, one chain of several): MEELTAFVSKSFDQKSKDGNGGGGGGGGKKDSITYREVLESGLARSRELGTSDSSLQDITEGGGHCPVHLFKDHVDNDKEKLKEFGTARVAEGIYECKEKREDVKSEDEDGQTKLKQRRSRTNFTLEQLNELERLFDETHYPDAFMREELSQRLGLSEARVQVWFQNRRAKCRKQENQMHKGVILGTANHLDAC
Chain of SHOX full length (O15266 whole entry, one chain of several): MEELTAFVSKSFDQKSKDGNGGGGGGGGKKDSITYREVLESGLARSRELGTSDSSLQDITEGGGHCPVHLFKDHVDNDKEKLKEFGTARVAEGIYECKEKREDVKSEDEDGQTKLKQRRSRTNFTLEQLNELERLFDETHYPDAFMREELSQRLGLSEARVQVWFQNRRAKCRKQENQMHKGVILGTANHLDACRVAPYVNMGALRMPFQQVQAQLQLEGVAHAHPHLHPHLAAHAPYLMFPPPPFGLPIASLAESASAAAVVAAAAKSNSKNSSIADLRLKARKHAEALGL

B1: BNP-600 chromatin region (dsDNA)
DNA 1: TAATGAATTG
DNA 2: CAATTCATTA
On to B1, for which the binding signal in series [1] is 428 fold enrichment.

B2: BNP-600b (dsDNA)
DNA 1: GGGTTCCTGGTCATACCCAGGCTTTTGGGGAAGGGCCACTGGGGAATCAGCAT
DNA 2: ATGCTGATTCCCCAGTGGCCCTTCCCCAAAAGCCTGGGTATGACCAGGAACCC
Take B2: the binding result in series [2] is reported as “no binding”.

B3: BNP-1220 Wt (dsDNA)
DNA 1: TAATCACCAGGCCACCTGCTAATGATAATTAGATCATGGGTGGTCAGATG
DNA 2: CATCTGACCACCCATGATCTAATTATCATTAGCAGGTGGCCTGGTGATTA
As to B3, the binding result in series [3] is “binds”.

B4: BNP-1220 chromatin region (dsDNA)
DNA 1: TAATGATAATTA
DNA 2: TAATTATCATTA
B4 displayed a binding signal in series [1] of 301 fold enrichment.

B5: BNP-1220c (dsDNA)
DNA 1: GGGTCACCAGGCCACCTGCTCCCGATACCTAGATCATGGGTGGTCAGATG
DNA 2: CATCTGACCACCCATGATCTAGGTATCGGGAGCAGGTGGCCTGGTGACCC
Consider B5, for which, in series [4], the binding result is “no binding”.

B6: BNP-600 Wt (dsDNA)
DNA 1: TTCCTGGTCATACCCAGGCTTTTAATGAATTGCCACTGGGGAATCAGCAT
DNA 2: ATGCTGATTCCCCAGTGGCAATTCATTAAAAGCCTGGGTATGACCAGGAA
With B6, the binding result in series [5] is recorded as “binds”.

Source of the values: patent US20080293632, “Use of natriuretic peptides for the treatment of stature disorders related to shox gene” (Gudrun RAPPOLD-HOERBRAND, published 2008).
